In patent publication US20250002588A1 (DIAGONAL THERAPEUTICS, published 2025):

These binders were tested against ALK-1/BMPR-2 receptor pair of the PathHunter U2Os dimerization cells (DiscoverX 93-0962C3) (UniProt P37023 22-503; Q13873 27-1038) (assay: cell-based or functional assay).
Chain of ALK-1/BMPR-2 receptor pair of the PathHunter U2Os dimerization cells (DiscoverX 93-0962C3) (P37023 22-503, chain 1 of 2): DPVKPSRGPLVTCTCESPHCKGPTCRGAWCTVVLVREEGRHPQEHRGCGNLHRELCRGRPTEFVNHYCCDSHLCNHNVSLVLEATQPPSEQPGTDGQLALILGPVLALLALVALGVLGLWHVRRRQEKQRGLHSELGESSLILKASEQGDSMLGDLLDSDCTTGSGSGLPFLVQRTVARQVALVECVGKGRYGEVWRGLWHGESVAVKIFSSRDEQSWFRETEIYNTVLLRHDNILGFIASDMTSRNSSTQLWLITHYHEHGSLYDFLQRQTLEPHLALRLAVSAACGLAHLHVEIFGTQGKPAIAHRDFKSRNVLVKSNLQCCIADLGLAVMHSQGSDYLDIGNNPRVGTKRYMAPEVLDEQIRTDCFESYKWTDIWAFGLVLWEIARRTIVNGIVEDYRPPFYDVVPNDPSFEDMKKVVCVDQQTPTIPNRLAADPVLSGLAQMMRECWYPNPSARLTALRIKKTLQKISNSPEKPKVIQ
Chain of ALK-1/BMPR-2 receptor pair of the PathHunter U2Os dimerization cells (DiscoverX 93-0962C3) (Q13873 27-1038, chain 2 of 2): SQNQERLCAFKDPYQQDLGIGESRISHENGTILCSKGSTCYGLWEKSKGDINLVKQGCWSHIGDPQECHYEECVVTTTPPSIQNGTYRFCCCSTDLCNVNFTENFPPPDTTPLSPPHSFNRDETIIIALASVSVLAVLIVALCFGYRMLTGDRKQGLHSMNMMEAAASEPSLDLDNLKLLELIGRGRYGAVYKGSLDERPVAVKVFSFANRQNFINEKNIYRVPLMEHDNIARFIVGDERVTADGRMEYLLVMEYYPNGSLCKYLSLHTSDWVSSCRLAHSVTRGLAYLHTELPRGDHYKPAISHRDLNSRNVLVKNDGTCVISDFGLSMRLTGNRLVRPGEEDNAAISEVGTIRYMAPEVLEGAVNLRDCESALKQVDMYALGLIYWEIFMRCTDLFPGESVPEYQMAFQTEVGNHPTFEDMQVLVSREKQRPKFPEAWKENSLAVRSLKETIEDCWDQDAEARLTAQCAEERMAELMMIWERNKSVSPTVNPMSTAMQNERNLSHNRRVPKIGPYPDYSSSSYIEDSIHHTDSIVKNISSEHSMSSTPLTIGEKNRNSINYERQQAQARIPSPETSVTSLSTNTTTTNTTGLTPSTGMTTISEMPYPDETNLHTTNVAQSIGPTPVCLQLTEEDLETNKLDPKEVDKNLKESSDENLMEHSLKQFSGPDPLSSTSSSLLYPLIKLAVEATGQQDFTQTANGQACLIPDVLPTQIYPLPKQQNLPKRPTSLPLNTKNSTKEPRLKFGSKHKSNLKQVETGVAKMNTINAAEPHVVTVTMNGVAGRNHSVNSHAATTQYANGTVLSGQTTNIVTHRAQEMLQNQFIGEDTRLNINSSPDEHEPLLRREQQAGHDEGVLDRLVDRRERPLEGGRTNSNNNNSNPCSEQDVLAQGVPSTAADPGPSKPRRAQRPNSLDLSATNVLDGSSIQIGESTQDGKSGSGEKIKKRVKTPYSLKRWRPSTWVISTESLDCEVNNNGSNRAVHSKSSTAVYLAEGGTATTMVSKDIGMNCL

Binder	% Emax BMP9 [%]	EC50 [nM]	Emax (RLU)
PRO003 (bispecific antibody) EVQLLESGGGLVQPGGSLRLSCAASGFTFSIYAMSWVRQAPGKGLEWVSAISGSGGSTYYADSVKGRFTISRDNSKNTLYLQMNSLRAEDTAVYYCARDFDYWGQGTLVTVTSSGGGGSGGGGSGGGGSQSVLTQPPSASGTPGQRVTISCSGSSSNIGSNYVYWYQQLPGTAPKLLIYGNINRPSGVPDRFSGSKSGTSASLAISGLRSEDEADYYCAAWDDSLNGRVFGGGTKLTVLDKTHTCPPCPAPEAAGAPSVFLFPPKPKDTLMISRTPEVTCVVVDVSHEDPEVKFNWYVDGVEVHNAKTKPREEQYNSTYRVVSVLTVLHQDWLNGKEYKCKVSNKALPAPIEKTISKAKGQPREPQVYTLPPSRDELTKNQVSLTCLVKGFYPSDIAVEWESNGQPENNYKTTPPVLDSDGSFFLYSKLTVDKSRWQQGNVFSCSVMHEALHNHYTQKSLSLSPGGGGGSGGGGSEVQLLESGGGLVQPGGSLRLSCAASGFTFSNAWMNWVRQAPGKGLEWVSSISSSSSYIYYADSVKGRFTISRDNSKNTLYLQMNSLRAEDTAVYYCARAVAAGGMFWGLDQWGQGTLVTVTSSGGGGSGGGGSGGGGSQSVLTQPPSASGTPGQRVTISCSGSRSNIGSNSVHWYQQLPGTAPKLLIYGNSNRPSGVPDRFSGSKSGTSASLAISGLRSEDEADYYCQSYDSSLNDHVVFGGGTKLTVL	47	0.1	1.25e+06
PRO004 (bispecific antibody) EVQLLESGGGLVQPGGSLRLSCAASGFTFSNAWMNWVRQAPGKGLEWVSSISSSSSYIYYADSVKGRFTISRDNSKNTLYLQMNSLRAEDTAVYYCARAVAAGGMFWGLDQWGQGTLVTVTSSGGGGSGGGGSGGGGSQSVLTQPPSASGTPGQRVTISCSGSRSNIGSNSVHWYQQLPGTAPKLLIYGNSNRPSGVPDRFSGSKSGTSASLAISGLRSEDEADYYCQSYDSSLNDHVVFGGGTKLTVLDKTHTCPPCPAPEAAGAPSVFLFPPKPKDTLMISRTPEVTCVVVDVSHEDPEVKFNWYVDGVEVHNAKTKPREEQYNSTYRVVSVLTVLHQDWLNGKEYKCKVSNKALPAPIEKTISKAKGQPREPQVYTLPPSRDELTKNQVSLTCLVKGFYPSDIAVEWESNGQPENNYKTTPPVLDSDGSFFLYSKLTVDKSRWQQGNVFSCSVMHEALHNHYTQKSLSLSPGGGGGSGGGGSEVQLLESGGGLVQPGGSLRLSCAASGFTFSIYAMSWVRQAPGKGLEWVSAISGSGGSTYYADSVKGRFTISRDNSKNTLYLQMNSLRAEDTAVYYCARDFDYWGQGTLVTVTSSGGGGSGGGGSGGGGSQSVLTQPPSASGTPGQRVTISCSGSSSNIGSNYVYWYQQLPGTAPKLLIYGNINRPSGVPDRFSGSKSGTSASLAISGLRSEDEADYYCAAWDDSLNGRVFGGGTKLTVL	46	0.5	1.21e+06
PRO005 (bispecific antibody) EVQLLESGGGLVQPGGSLRLSCAASGFTFSSYAMSWVRQAPGKGLEWVANINQDGSEKNYVDSMRGRFTISRDNSKNTLYLQMNSLRAEDTAVYYCAREFDYWGQGTLVTVTSSGGGGSGGGGSGGGGSQSVLAQPPSASGTPGQRVTISCSGSSSNIGSNYVYWYQQLPGTAPKLLIYGNNKRPSGVPDRFSGSKSGTSASLAISGLRSEDEADYYCAAWDDSLNGRVFGGGTKLTVLDKTHTCPPCPAPEAAGAPSVFLFPPKPKDTLMISRTPEVTCVVVDVSHEDPEVKFNWYVDGVEVHNAKTKPREEQYNSTYRVVSVLTVLHQDWLNGKEYKCKVSNKALPAPIEKTISKAKGQPREPQVYTLPPSRDELTKNQVSLTCLVKGFYPSDIAVEWESNGQPENNYKTTPPVLDSDGSFFLYSKLTVDKSRWQQGNVFSCSVMHEALHNHYTQKSLSLSPGGGGGSGGGGSEVQLLESGGGLVQPGGSLRLSCAASGFTFSDYYMTWIRQAPGKGLEWVSSISGGSTYYADSRKGRFTISRDNSENTLYLQMNSLRAEDTAVYYCARDFGVAGWFGQYGMDVWGQGTLVTVSSGGGGSGGGGSGGGGSQSVLTQPPSASGTPGQRVTISCTGSSSNIGAGYDVHWYQQLPGTAPKLLIYRSNQRPSGVPDRFSGSKSGTSASLAISGLRSEDEADYYCSSYAGNYNLVFGGGTKLTVL	35	0.075	931000
